Source: the supplement of paper PMC10126150
± gives the standard deviation of the averaged measurements.

Each sequence was assayed on ATP (assay: switch fluorescence ratio, 500 uM ATP over buffer (Cy3 cluster intensity, sum of 5 cycles each) (fold (ratio)); higher = stronger signal-on switching upon ATP binding; sequences stand for … in TCGTCGGCAGCGTCAGATGTGTATAAGAGACAGTTTTTTTTTTTTTTTTTTTTTTTTT…TC). Details: aptamer strand: ATP DNA aptamer (quencher-CACCTGGGGGAGTATTGCGGAGGAAGG + anchor), 100 nM annealed; ATP concentration: 500 uM.
How it was run: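 After annealing to 100 nM quencher-labelled ATP aptamer, Cy3-labelled switching-strand clusters on a modified Illumina MiSeq flow-cell were imaged in selection buffer. A second image followed after 15 min with 500 uM ATP at 22 °C, and five such buffer/ATP cycles were done, each separated by NaOH stripping and re-annealing. The fluorescence ratio, averaged per switch-domain sequence, is summed target-cycle over summed buffer-cycle Cy3 intensity per cluster, with clusters outside 100-1000 RFU excluded.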
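Note: ATP exposure 15 min at 22 °C before imaging.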

Sequence	switch fluorescence ratio
AGGAGGTTAT	1.01 ± 0.013
AGGAGTACGT	0.988 ± 0.013
AGGAGTACTT	1.02 ± 0.019
AGGAGTGGTA	0.999 ± 0.013
AGGAGTTTAG	0.9867 ± 0.0093
AGGATAACCC	1.018 ± 0.0064
AGGATAGTTG	0.982 ± 0.038
AGGATCAACG	0.984 ± 0.034
AGGATCGGTA	0.987 ± 0.022
AGGATCTTGT	0.9943 ± 0.0016
AGGATGCAGA	1.01 ± 0.024
AGGATGGGG	0.9741 ± 0.0069
AGGATGGGTG	0.991 ± 0.021
AGGATGGTTG	1 ± 0.021
AGGATGTGCT	0.9655 ± 0.006
AGGATTATGT	1.01 ± 0.035
AGGATTGGGT	0.99 ± 0.017
AGGATTTGAG	1 ± 0.013
AGGATTTGGT	0.984 ± 0.031
AGGATTTTAG	1.002 ± 0.0049
AGGATTTTTG	1.02 ± 0.021
AGGCAAAGCA	1.05 ± 0.073
AGGCAAAGGC	1.06 ± 0.036
AGGCAGACCG	1.03 ± 0.07
AGGCAGATGG	0.998 ± 0.021
AGGCAGTGGG	0.998 ± 0.028

Sequence	switch fluorescence ratio
AGGCATCAAC	1.02 ± 0.013
AGGCATGCTG	0.98 ± 0.062
AGGCCCCCGA	1.02 ± 0.066
AGGCCGAGTC	1.02 ± 0.054
AGGCCGGGTG	1.35 ± 0.052
AGGCCGTGGC	0.968 ± 0.035
AGGCCTAACG	0.995 ± 0.01
AGGCCTCGCA	1.03 ± 0.039
AGGCCTGGG	1 ± 0.016
AGGCCTTCGA	1.003 ± 0.0083
AGGCGCAATT	1.81 ± 0.94
AGGCGCAGGG	0.9982 ± 0.0089
AGGCGCGCGG	0.9507 ± 0.0057
AGGCGCTAT	1.04 ± 0.021
AGGCGGATGG	0.9853 ± 0.0062
AGGCGGCAGC	0.982 ± 0.02
AGGCGGCCTG	0.982 ± 0.016
AGGCGGCTTC	1.03 ± 0.014
AGGCGGGGTA	0.9847 ± 0.0089
AGGCGGTGCG	1.02 ± 0.03
AGGCGGTGGC	1.02 ± 0.11
AGGCGTGAGG	1.01 ± 0.049
AGGCTAAAG	0.974 ± 0.01
AGGCTATCCC	0.992 ± 0.033
AGGCTCACAA	1.07 ± 0.03
AGGCTCCGAG	1.03 ± 0.011

Sequence	switch fluorescence ratio
AGGCTCCTCG	1.039 ± 4.4e-05
AGGCTCTTTG	1.01 ± 0.04
AGGCTGAGCG	1.01 ± 0.022
AGGCTGTTCT	0.991 ± 0.059
AGGCTTGCGC	1.01 ± 0.037
AGGCTTTCCT	1.05 ± 0.04
AGGCTTTTAT	1.005 ± 0.0078
AGGGAAAAAT	1.06 ± 0.082
AGGGAAACTA	0.999 ± 0.013
AGGGAAAGGG	1.02 ± 0.02
AGGGAAATAA	0.987 ± 0.026
AGGGAACCCT	1.13 ± 0.03
AGGGAAGGAA	1.01 ± 0.037
AGGGAAGGAC	1.03 ± 0.029
AGGGAAGTCG	0.9751 ± 0.0093
AGGGAAGTTA	1.01 ± 0.014
AGGGACAAGG	1.014 ± 0.0095
AGGGACGTTC	0.967 ± 0.024
AGGGACTAGA	1 ± 0.025
AGGGACTGAC	1.24 ± 0.075
AGGGACTGTG	1.01 ± 0.073
AGGGACTTTA	1.0332 ± 0.00011
AGGGAGAAAC	0.984 ± 0.028
AGGGAGAAGA	1.005 ± 0.0077
